# According to the supplement of paper PMC7877785:
# ± gives the uncertainty stated by the source.
# Assay: self-splicing fitness, log relative to wild type (ln ratio); higher = more splicing; Tetrahymena group I intron in knt gene, E. coli kanamycin selection, DiMSum; sequences stand for … in CUCUCU…GGAGGGAAAAGUUAUCAGGCAUGCACCUGGUAGCUAGUCUUUAAACCAAUAGAUUGCAUCGGUUUAAAAGGCAAGACCGUCAAAUUGCGGGAAAGGGGUCAACAGCCGUUCAGUACCAAGUCUCAGGGGAAACUUUGAGAUGGCCUUGCAAAGGGUAUGGUAAUAAGCUGACGGACAUGGUCCUAACCACGCAGCCAAGUCCUAAGUCAACAGAUCUUCUGUUGAUAUGGAUGCAGUUCACAGACUAAAUGUCGGUCGGGGAAGAUGUAUUCUUCUCAUAAGAUAUAGUCGGACCUCUCCUUAAUGGGAGCUAGCGGAUGAAGUGAUGCAACACUGGAGCCGCUGGGAACUAAUUUGUAUGCGAAAGUAUAUUGAUUAGUUUUGGAGUACUCGUGGUCG
# Summary of the method: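 Six replicate transformations of E. coli BL21(DE3) with a pET-22b(+) library were grown overnight at 37°C or 30°C. The library randomised all eight P1ex-region intron nucleotides, the intron lying in the knt kanamycin-resistance gene, and plates were LB agar with or without 25 μg/mL kanamycin plus 100 μg/mL carbenicillin, 50 μM IPTG and 0.2% rhamnose. Pooled colonies were amplicon-sequenced on an Illumina HiSeq 2500, and fitness is the DiMSum error-weighted combination of wild-type-normalised replicate fold changes, kanamycin versus none.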
Sequence,self-splicing fitness (ln) (30 °C),self-splicing fitness (ln) (37 °C)
UAAUAGCAAUAUUACGCACG,-1.1 ± 0.16,0.193 ± 0.24
GACAAGCAAUAUUACGCAUA,-0.868 ± 0.11,-0.12 ± 0.15
CACUAGCAAUAUUACGCUCG,-0.657 ± 0.073,0.214 ± 0.089
UCAGAGCAAUAUUACGAGAU,-3.74 ± 0.33,-2.09 ± 0.37
GUUCAGCAAUAUUACGAGAA,-1.81 ± 0.49,-2.14 ± 0.31
AAAAAGCAAUAUUACGUAUG,-2.02 ± 0.11,-1.63 ± 0.13
UUCAAGCAAUAUUACGCCUA,0.0224 ± 0.061,0.182 ± 0.077
AGUUAGCAAUAUUACGAAUC,-2.57 ± 0.15,-2.03 ± 0.21
UCAGAGCAAUAUUACGAAUC,-2.45 ± 0.42,
CACAAGCAAUAUUACGGUCC,-2.99 ± 0.32,-1.99 ± 0.27
UGUAAGCAAUAUUACGAUGU,-3.26 ± 0.15,-1.93 ± 0.21
GCCGAGCAAUAUUACGAAUU,-2.59 ± 0.11,-2.21 ± 0.15
ACAGAGCAAUAUUACGUAUU,-3.66 ± 0.23,-2.84 ± 0.27
GCUAAGCAAUAUUACGUUAA,-2.72 ± 0.16,-1.74 ± 0.18
AAUUAGCAAUAUUACGCCCG,-1.04 ± 0.18,0.376 ± 0.28
GGCGAGCAAUAUUACGAUCG,-2.53 ± 0.21,-0.978 ± 0.21
AUAGAGCAAUAUUACGACCC,-2.56 ± 0.47,-1.4 ± 0.42
CACGAGCAAUAUUACGGCUA,-2.19 ± 0.22,-1.41 ± 0.17
GGUGAGCAAUAUUACGUAGU,-3.37 ± 0.23,-2.1 ± 0.29

Sequence,self-splicing fitness (ln) (30 °C),self-splicing fitness (ln) (37 °C)
CAGCAGCAAUAUUACGCCCC,-1.87 ± 0.48,-0.533 ± 0.43
CUGUAGCAAUAUUACGGGGU,-2.96 ± 0.34,-2.82 ± 0.36
CCUUAGCAAUAUUACGCAUA,-3.22 ± 0.46,-2.24 ± 0.37
AGGUAGCAAUAUUACGUGAA,-2.213 ± 0.016,-1.34 ± 0.034
UCGAAGCAAUAUUACGCAGA,-2.28 ± 0.2,-2.85 ± 0.27
AGUCAGCAAUAUUACGCACA,-0.062 ± 0.12,-0.284 ± 0.14
GUUCAGCAAUAUUACGUAGA,-0.546 ± 0.1,-0.394 ± 0.1
GUCGAGCAAUAUUACGUCUA,-1.76 ± 0.46,-0.965 ± 0.33
CUCUAGCAAUAUUACGCAAC,-3.63 ± 0.2,-3.59 ± 0.28
GCUAAGCAAUAUUACGGUCG,-2.27 ± 0.11,-1.34 ± 0.14
GCCGAGCAAUAUUACGCGGG,-4.07 ± 0.2,-2.3 ± 0.18
AGUAAGCAAUAUUACGUUCG,-1.92 ± 0.14,-1.17 ± 0.17
CACUAGCAAUAUUACGCAUG,-1.95 ± 0.13,-1.75 ± 0.21
AGCUAGCAAUAUUACGUCGA,-2.69 ± 0.2,-1.9 ± 0.14
UCCAAGCAAUAUUACGCAAG,-3.86 ± 0.32,-2.51 ± 0.26
UUAGAGCAAUAUUACGGAUG,-3.13 ± 0.19,-0.15 ± 0.15
CCUUAGCAAUAUUACGGUUG,-2.38 ± 0.1,-1.48 ± 0.098
ACCGAGCAAUAUUACGCUAU,-2.77 ± 0.14,-2.26 ± 0.14
ACUCAGCAAUAUUACGUUGC,-3.43 ± 0.16,-3.57 ± 0.26
